Broadly, the EC50 is the concentration giving half of the maximal effect. One may read the Kd as the constant that tells how readily two partners part at equilibrium. The term IC50 denotes the concentration at which inhibition is half-maximal. Read a high IC50 as lower potency.

Read-outs that look alike come from different tables or passages of the source.

The target of assay [1] is recombinant human VEGF-A165 (human) (UniProt P15692).
Assay [2] shares this target. The source holds these as a separate data set.
Assay [3] shares this target. The source holds these as a separate data set.
Assay [4] has as its target T1, recombinant human PIGF (human) (UniProt P49763).
T1 sequence (looked up): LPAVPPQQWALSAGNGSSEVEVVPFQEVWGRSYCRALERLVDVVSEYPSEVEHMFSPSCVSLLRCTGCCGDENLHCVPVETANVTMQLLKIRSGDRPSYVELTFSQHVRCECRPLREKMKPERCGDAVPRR
Description: ELISA on plate-coated recombinant human PIGF; anti-human IgG1-Fc-HRP, OD450. In general terms: An ELISA detects its analyte on a solid surface through an enzyme-linked reagent.

For assay [5], the target named is T2, recombinant human VEGF-B167 (human) (UniProt P49765).
T2 sequence (looked up): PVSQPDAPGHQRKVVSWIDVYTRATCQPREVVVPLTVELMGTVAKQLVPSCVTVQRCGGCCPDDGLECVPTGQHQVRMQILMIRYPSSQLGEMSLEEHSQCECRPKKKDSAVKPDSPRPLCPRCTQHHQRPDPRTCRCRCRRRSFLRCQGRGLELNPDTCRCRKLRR
Nature of the assay: ELISA on plate-coated recombinant human VEGF-B167; anti-human IgG1-Fc-HRP, OD450.

The target of assay [6] is recombinant human VEGF-A165 (human) (UniProt P15692). Nature of the assay: ELISA on plate-coated recombinant human VEGF-A165; anti-human IgG1-Fc-HRP, OD450.
The target in assay [7] is T1, recombinant human PIGF (human). Description: SPR Biacore, 25 C; test antibody captured by anti-human IgG (Fc) on CM5 chip, target protein as analyte; 1:1 model.
Assay [8] deals with recombinant human VEGF-A165 (human) (UniProt P15692). The description is as above.
Assay [9] has as its target T2, recombinant human VEGF-B167 (human). The description is as above.
Assay [10] has as its target T1, recombinant human PIGF (human). The assay is described as above. This is another data set of the same source.
In assay [11] the target is recombinant human VEGF-A165 (human) (UniProt P15692). The description is as above. This is another data set of the same source.
In assay [12] the target is T2, recombinant human VEGF-B167 (human). Described as above. This is another data set of the same source.
The target in assay [13] is T1, recombinant human PIGF (human). Description: ELISA on plate-coated recombinant human PIGF; anti-human IgG1-Fc-HRP, OD450. This is another data set of the same source.
Assay [14] deals with recombinant human Ang-2 (human) (UniProt O15123). Nature of the assay: ELISA on plate-coated recombinant human Ang-2; anti-human IgG1-Fc-HRP, OD450.
Chain of recombinant human Ang-2 (human) (O15123 19-496 limits assumed): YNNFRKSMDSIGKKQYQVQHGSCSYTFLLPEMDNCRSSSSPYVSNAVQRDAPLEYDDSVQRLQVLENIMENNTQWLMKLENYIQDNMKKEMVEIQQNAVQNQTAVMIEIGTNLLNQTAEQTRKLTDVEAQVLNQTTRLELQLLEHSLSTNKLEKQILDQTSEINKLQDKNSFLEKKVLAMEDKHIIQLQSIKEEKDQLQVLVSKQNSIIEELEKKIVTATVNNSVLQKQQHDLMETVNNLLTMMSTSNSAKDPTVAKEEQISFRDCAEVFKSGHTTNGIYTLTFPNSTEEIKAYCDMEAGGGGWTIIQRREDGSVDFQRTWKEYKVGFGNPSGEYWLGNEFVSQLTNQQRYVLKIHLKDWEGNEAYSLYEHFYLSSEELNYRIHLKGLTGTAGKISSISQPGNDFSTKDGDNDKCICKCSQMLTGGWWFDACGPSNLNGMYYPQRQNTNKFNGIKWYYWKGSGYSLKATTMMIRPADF
Assay [15] deals with human IL-6R overexpressed on engineered CHO-S cells (human) (UniProt P08887). Nature of the assay: FACS competition: antibody with biotinylated human IL-6 and CHO-S cells overexpressing human IL-6R; blocked: IL-6 binding to IL-6R.
Chain of human IL-6R overexpressed on engineered CHO-S cells (human) (P08887 20-468, change not shown): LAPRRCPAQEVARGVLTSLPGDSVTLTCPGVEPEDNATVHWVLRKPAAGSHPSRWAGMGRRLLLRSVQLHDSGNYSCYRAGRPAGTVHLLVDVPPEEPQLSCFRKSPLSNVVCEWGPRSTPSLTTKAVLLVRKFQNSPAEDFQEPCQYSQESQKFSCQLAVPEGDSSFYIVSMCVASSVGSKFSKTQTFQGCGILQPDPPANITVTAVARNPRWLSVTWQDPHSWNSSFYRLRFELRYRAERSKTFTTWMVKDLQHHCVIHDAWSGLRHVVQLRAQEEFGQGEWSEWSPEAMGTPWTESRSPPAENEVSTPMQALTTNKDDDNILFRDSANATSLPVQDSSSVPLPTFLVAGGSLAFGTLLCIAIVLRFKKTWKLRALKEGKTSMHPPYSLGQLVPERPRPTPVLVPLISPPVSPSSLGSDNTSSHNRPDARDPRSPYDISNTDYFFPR

Chain of Aflibercept (Fc fusion) (chain): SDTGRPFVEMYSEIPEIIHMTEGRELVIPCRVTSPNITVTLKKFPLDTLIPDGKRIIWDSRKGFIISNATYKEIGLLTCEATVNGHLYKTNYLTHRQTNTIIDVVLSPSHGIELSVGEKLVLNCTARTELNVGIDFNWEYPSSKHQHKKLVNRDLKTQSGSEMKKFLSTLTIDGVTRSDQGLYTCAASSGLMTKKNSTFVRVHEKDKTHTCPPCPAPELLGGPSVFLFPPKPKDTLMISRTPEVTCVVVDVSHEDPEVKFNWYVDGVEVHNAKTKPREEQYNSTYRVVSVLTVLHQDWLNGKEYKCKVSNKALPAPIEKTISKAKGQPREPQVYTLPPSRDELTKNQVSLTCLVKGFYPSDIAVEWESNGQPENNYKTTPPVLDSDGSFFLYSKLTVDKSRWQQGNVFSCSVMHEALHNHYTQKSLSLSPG
Chain of Conbercept (Fc fusion) (chain): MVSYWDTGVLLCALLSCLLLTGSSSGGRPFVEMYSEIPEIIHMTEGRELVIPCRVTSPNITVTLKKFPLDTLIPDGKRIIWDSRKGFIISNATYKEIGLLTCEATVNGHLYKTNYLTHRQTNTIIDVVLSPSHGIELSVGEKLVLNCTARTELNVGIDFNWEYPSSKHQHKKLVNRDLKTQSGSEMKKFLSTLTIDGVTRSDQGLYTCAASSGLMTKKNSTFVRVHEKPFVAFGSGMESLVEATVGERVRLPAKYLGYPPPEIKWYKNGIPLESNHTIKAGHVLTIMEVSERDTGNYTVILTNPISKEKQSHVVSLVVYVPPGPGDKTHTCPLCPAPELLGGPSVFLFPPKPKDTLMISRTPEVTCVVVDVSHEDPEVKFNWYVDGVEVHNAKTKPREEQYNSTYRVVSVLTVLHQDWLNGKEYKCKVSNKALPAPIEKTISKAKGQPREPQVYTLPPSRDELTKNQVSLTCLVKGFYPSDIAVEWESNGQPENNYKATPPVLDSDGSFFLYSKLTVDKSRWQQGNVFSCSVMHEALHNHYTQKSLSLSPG
Chain of recombinant human VEGF-A165 (human) (P15692 other isoform, or with tags, fused parts or gaps limits assumed): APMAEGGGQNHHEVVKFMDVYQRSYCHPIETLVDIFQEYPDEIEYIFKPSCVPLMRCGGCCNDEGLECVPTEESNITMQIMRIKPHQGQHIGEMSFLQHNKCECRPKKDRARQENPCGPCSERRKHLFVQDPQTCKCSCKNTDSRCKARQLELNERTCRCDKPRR

For Aflibercept (Fc fusion), the figures for the IC50, inhibition of VEGF-A165-stimulated VEGFR-2 NF-AT luciferase reporter (HEK-293), luminescence in assay [1], in assay [2] and in assay [3] were 0.606 nM, 0.595 nM and 0.326 nM, respectively. In addition, the EC50 in [4] came out at 0.012 nM; in assay [5] it was 0.076 nM; in assay [6], 0.008 nM. In addition, the Kd in [7] stood at 0.148 nM; in assay [8], 0.00257 nM; in assay [9], 1.85 nM; in assay [10], 0.106 nM; in [11], 0.00344 nM; in assay [12], 1.37 nM.

Consider Conbercept (Fc fusion), for which the EC50 is 0.103 nM in assay [13], 0.089 nM in [4], 0.009 nM in assay [5] and 0.078 nM in assay [6].

On to Tie-2-Fc (Fc fusion), for which the EC50 in assay [14] came out at 8.32 nM.

On to Vobarilizumab-Fc (Fc fusion), for which, in assay [15], the IC50 stood at 0.524 nM.

For the origin of these results see patent US20260265359A1.
